Source: patent publication US8642834B2, “Methods for the identification of agents that inhibit mesenchymal-like tumor cells or their formation” (OSI Pharmaceuticals, LLC, priority 2009, dated 2014)

B1: IL-33: Interleukin-33, Peprotech, 50 ng/ml (protein, UniProt O95760 1-270, looked up)
Interleukin-33: MKPKMKYSTNKISTAKWKNTASKALCFKLGKSQQKAKEVCPMYFMKLRSGLMIKKEACYFRRETTKRPSLKTGRKHKRHLVLAACQQQSTVECFAFGISGVQKYTRALHDSSITGISPITEYLASLSTYNDQSITFALEDESYEIYVEDLKKDEKKDKVLLSYYESQHPSNESGDGVDGKMLMVTLSPTKDFWLHANNKEHSVELHKCEKPLPDQAFFVLHNMHSNCVSFECKTDPGVFIGVKDNHLALIKVDSSENLCTENILFKLSET
B2: BMP4: bone morphogenetic protein 4, R&D systems, 100 ng/ml (protein, UniProt P12644 293-408, looked up)
Bone morphogenetic protein 4: SPKHHSQRARKKNKNCRRHSLYVDFSDVGWNDWIVAPPGYQAFYCHGDCPFPLADHLNSTNHAIVQTLVNSVNSSIPKACCVPTELSAISMLYLDEYDKVVLKNYQEMVVEGCGCR
B3: BMP7: bone morphogenetic protein 7, R&D systems, 100 ng/ml (protein, UniProt P18075 293-431, looked up)
Bone morphogenetic protein 7: STGSKQRSQNRSKTPKNQEALRMANVAENSSSDQRQACKKHELYVSFRDLGWQDWIIAPEGYAAYYCEGECAFPLNSYMNATNHAIVQTLVHFINPETVPKPCCAPTQLNAISVLYFDDSSNVILKKYRNMVVRACGCH
B4: CTGF: Connective tissue growth factor, Peprotech, 20 ng/ml (protein, UniProt P29279 27-349, looked up)
CCN family member 2: QNCSGPCRCPDEPAPRCPAGVSLVLDGCGCCRVCAKQLGELCTERDPCDPHKGLFCHFGSPANRKIGVCTAKDGAPCIFGGTVYRSGESFQSSCKYQCTCLDGAVGCMPLCSMDVRLPSPDCPFPRRVKLPGKCCEEWVCDEPKDQTVVGPALAAYRLEDTFGPDPTMIRANCLVQTTEWSACSKTCGMGISTRVTNDNASCRLEKQSRLCMVRPCEADLEENIKKGKKCIRTPKISKPIKFELSGCTSMKTYRAKFCGVCTDGRCCTPHRTTTLPVEFKCPDGEVMKKNMMFIKTCACHYNCPGDNDIFESLYYRKMYGDMA

The molecules below were run on CFPAC-1 cells (assay: Induction of EMT by growth factors and cytokines, E-cadherin and vimentin immunoblotting). Conditions: CFPAC-1 cells treated 7 days with ligand.
Assay type: cell-based, human
Protocol: The CFPAC1 cell line was cultured in DMEM media (Gibco #11960) supplemented with 10% FBS (Sigma), 2 mM L Glutamine (Gibco), at 37° C., 5% CO2. For 7 day treatments, cells were seeded on tissue culture plastic in complete growth media and allowed to attach overnight at cell densities that would provide approximately 60-80% confluence at end of experiment. Ligand and/or inhibitor was added the following day (Day 0) in complete growth media and incubated at 37° C., 5% CO2. Ligand source and concentrations used are as follows: [1] From R&D systems, SDF-1α (stromal derived factor-1 alpha) at 100 ng/ml, TRANCE (TNF-related activation induced cytokine) at 50 ng/ml, FGF1 (fibroblast growth factor acidic) at 10 ng/ml, FGF2 (fibroblast growth factor basic) at 10 ng/ml, BMP4 (bone morphogenetic protein 4) at 100 ng/ml, BMP7 (bone morphogenetic protein 7) at 100 ng/ml, IGF2 (insulin-like growth factor 2) at 100 ng/ml, OSM (Oncostatin M) at 100 ng/ml, NRG1 (Neuregulin-1) at 50 ng/ml, PDGFaa (Platelet derived growth factor a) at 50 ng/ml, PDGFbb (platelet derive growth factor b) at 30 ng/ml, Ang2 (Angiopoeitin 2) at 400 ng/ml, amphiregulin at 100 ng/ml, HMGB 1 (Human high-mobility group box 1 protein) at 50 ng/ml; [2] From Genscript, LIF (Leukemia inhibitory factor) at 20 ng/ml, GM-CSF (Granulocyte macrophage colony stimulating factor) at 25 ng/ml, M-CSF (Macrophage colony stimulating factor) at 50 ng/ml; [3] From Anaspec, PAR1 (Protease activated receptor 1 agonist) at 100 μM; PAR2 (Protease activated receptor 2 agonist; peptide SLIGKV-NH2, Cat. No. 60217-1) at 100 μM; PAR4 (Protease activated receptor […] agonist; peptide AYPGKF-NH2, Cat. No. 60218-1) at 100 μM; [4] From Peprotech, HGF (Hepatocyte Growth Factor) at 100 ng/ml; IL-31 (Interleukin-31) at 50 ng/ml, IL-33 (Interleukin-33) at 50 ng/ml, IL1-a (Interleukin-1 alpha) at 10 ng/ml, CTGF (Connective tissue growth factor) at 20 ng/ml, WISP1 (Wnt-1 inducible signaling pathway protein) at 20 ng/ml, PTHrP ([…] hormone-related protein) at 50 ng/ml, MCP1 (monocyte chemotactic protein-1) at 50 ng/ml; and [5] from Sigma, Fulvestrant at 1 μM. Fresh medium containing ligand and/or inhibitor was added 3-4 days after initial dose, and at Day 7 cells were harvested for western blot analysis.
Cells were harvested by washing once with PBS, and lysing on ice for 10 minutes with scraping (using a Cell Lifter, Corning Inc. #3008) in ice cold RIPA buffer (Sigma R0278) containing Protease inhibitor (Sigma P8340), Phosphatase inhibitors (Sigma P2850, P5726) and 200 μM Sodium Vanadate. Supernatents were micro-centrifuged at max speed, 4° C. for 10 minutes. Protein content was quantitated using the BCA method (Pierce #23225) and samples were normalized to total protein in Laemli buffer and heated at 100° C. for 10 minutes. SDS PAGE was run using a Bis-Tris gel system (Invitrogen NuPAGE) with MOPS buffer (Invitrogen NP0001), transferred onto nitrocellulose using the iBLOT system (Invitrogen) and blocked in PBS-T (0.1% Tween 20), 5% non-fat milk or BSA in guidance with primary Ab supplier requirements. All primary antibodies were incubated overnight at 4° C. in PBS-T (0.1% Tween 20) in either 5% non-fat milk or BSA, diluted to the following working dilutions: anti E Cadherin (Santa Cruz #sc-21791) 1:500 dilution; anti Vimentin (BD Biosciences #550513) 1:2000 dilution;); anti GAPDH HRP conjugate (Santa Cruz sc-25778) 1:1000 dilution; anti β-Actin (Sigma, A5441) 1:10,000 dilution. […]
With B1 the “Induction of EMT (E-cadherin down, vimentin up)” value (“Induction of EMT” for short) was “Partial EMT”. For B2, the “Induction of EMT” value was “Partial EMT”. With B3 the “Induction of EMT” value was “Partial EMT”. For B4, the “Induction of EMT” value was “Partial EMT”.
